Source: patent US20070099247A1

Molecular target: Streptavidin (UniProt P22629)
Assay: flow cytometry of YFP fluorescence on streptavidin coated beads after adding 1 uM biotin

Chain of Streptavidin (P22629 37-163 limits assumed): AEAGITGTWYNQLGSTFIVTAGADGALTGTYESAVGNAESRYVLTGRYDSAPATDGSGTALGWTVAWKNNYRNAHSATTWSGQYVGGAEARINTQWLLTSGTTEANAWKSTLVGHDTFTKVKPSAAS

- koff: 0.02 s⁻¹
Substance: Yellow fluorescent protein with streptavidin binding peptide SA-1 inserted after Y145
